Measured values from paper PMC3605151, “The Common Structural Architecture of Shigella flexneri and Salmonella typhimurium Type Three Secretion Needles” (PLoS Pathogens, 2013).

Target: the molecule itself
Test: in vitro polymerisation into needles, seen by transmission electron microscopy and solid-state NMR; purified subunit polymerised at 0.2 mM, 37°C, sixteen days; needles ultra-centrifuged for magic-angle spinning solid-state NMR at 5.5°C

B1: MxiH, wild-type Shigella flexneri T3SS needle subunit (recombinant, His tag cleaved) (natural protein)
chain: GHMSVTVPDKDWTLSSLSETFDDGTQTLQGQLTSALNALAENPSNPQLLAEYQSKLSEYTLYRNAQSNTVKVIKDVDAAIIQNFR
modifications: 15N and 13C isotope labelling
notes: non-native N-terminal residues glycine and histidine left after cleavage by tobacco etch virus protease (told in words); MxiH, T3SS needle subunit, Shigella flexneri serotype 6, residues Met1 to R83; Helical homopolymer (needle); also called WT MxiH; WT Shigella T3SS needles; source: polymerized in vitro; not shown: hepta-Histidine (His) tag, N-terminal, cleaved
binding result: binds
